Reference: FireProtDB (doi:10.1093/protein/8.11.1153)

B1: Alpha-lactalbumin, P00712 (parent)
chain: MMSFVSLLLVGILFHATQAEQLTKCEVFQKLKDLKDYGGVSLPEWVCTAFHTSGYDTQAIVQNNDSTEYGLFQINNKIWCKDDQNPHSRNICNISCDKFLDDDLTDDIVCAKKILDKVGINYWLAHKALCSEKLDQWLCEKL

Variants of: B1
Details: Capra hircus; pH 2; 20 °C; Urea; CD; NaCl-HCl 100 mM; structure 1HFY; whole UniProt chain shown

Variant	ddG of mutation (higher = less stable)	denaturant m value	denaturant midpoint (higher = more stable)	unfolding free energy
MMSFVSLLLVGILFHATQAEQLTKCEVFQKLKDLKDYGGVSLPEWVCIAFHTSGYDTQAIVQNNDSTEYGLFQINNKIWCKDDQNPHSRNICNISCDKFLDDDLTDDIVCAKKILDKVGINYWLAHKALCSEKLDQWLCEKL [T48I]	-0.07 kcal/mol	0.31 kcal/mol/M	2.5 M	0.77 kcal/mol
MMSFVSLLLVGILFHATQAEQLTKCEVFQKLKDLKDYGGVSLPEWVCTTFHTSGYDTQAIVQNNDSTEYGLFQINNKIWCKDDQNPHSRNICNISCDKFLDDDLTDDIVCAKKILDKVGINYWLAHKALCSEKLDQWLCEKL [A49T]	0.14 kcal/mol	0.29 kcal/mol/M	1.9 M	0.56 kcal/mol
MMSFVSLLLVGILFHATQAEQLTKCEVFQKLKDLKDYGGVSLPEWVCTIFHTSGYDTQAIVQNNDSTEYGLFQINNKIWCKDDQNPHSRNICNISCDKFLDDDLTDDIVCAKKILDKVGINYWLAHKALCSEKLDQWLCEKL [A49I]	-0.3 kcal/mol	0.33 kcal/mol/M	3 M	1 kcal/mol
MMSFVSLLLVGILFHATQAEQLTKCEVFQKLKDLKDYGGVSLPEWVCTAFHISGYDTQAIVQNNDSTEYGLFQINNKIWCKDDQNPHSRNICNISCDKFLDDDLTDDIVCAKKILDKVGINYWLAHKALCSEKLDQWLCEKL [T52I]	-0.32 kcal/mol	0.39 kcal/mol/M	2.6 M	1.02 kcal/mol
